Source: IntAct's records for PubMed 15447654

B1: Adagio protein 1 (Arabidopsis thaliana (Mouse-ear cress)), Q94BT6 (parent)
chain: MEWDSGSDLSADDASSLADDEEGGLFPGGGPIPYPVGNLLHTAPCGFVVTDAVEPDQPIIYVNTVFEMVTGYRAEEVLGGNCRFLQCRGPFAKRRHPLVDSMVVSEIRKCIDEGIEFQGELLNFRKDGSPLMNRLRLTPIYGDDDTITHIIGIQFFIETDIDLGPVLGSSTKEKSIDGIYSALAAGERNVSRGMCGLFQLSDEVVSMKILSRLTPRDVASVSSVCRRLYVLTKNEDLWRRVCQNAWGSETTRVLETVPGAKRLGWGRLARELTTLEAAAWRKLSVGGSVEPSRCNFSACAVGNRVVLFGGEGVNMQPMNDTFVLDLNSDYPEWQHVKVSSPPPGRWGHTLTCVNGSNLVVFGGCGQQGLLNDVFVLNLDAKPPTWREISGLAPPLPRSWHSSCTLDGTKLIVSGGCADSGVLLSDTFLLDLSIEKPVWREIPAAWTPPSRLGHTLSVYGGRKILMFGGLAKSGPLKFRSSDVFTMDLSEEEPCWRCVTGSGMPGAGNPGGVAPPPRLDHVAVNLPGGRILIFGGSVAGLHSASQLYLLDPTEDKPTWRILNIPGRPPRFAWGHGTCVVGGTRAIVLGGQTGEEWMLSELHELSLASYLT

Variants of: B1
Conditions: with skp1a_arath SKP1A

Variant	effect of a mutation on the interaction
L213A	decreasing interaction
L200A	decreasing interaction
